The series can be described thus: protein stability index of a GFP-peptide fusion (GPS, HEK-293T) (PSI 1-6); higher = more stable. The following applies: c terminus: a fixed tail appended.
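Note: lentivirally expressed fusions sorted by FACS into six bins by GFP to DsRed ratio, PSI derived from sequencing read proportions per bin multiplied by bin number.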

In the case of INRADYCPECYPDNPANRSLVLPW [IFRG15 WT], the protein stability index (parent: IOH41552_8) was 2.18.

For the protein TIRLRPRQVLCEKCKSTLSPPEAS [PWWP2B WT], the protein stability index (parent: IOH40143_16) worked out at 3.06.

On to QSSHYLQWILDKQDLLKERQKDLK [CCNC WT], for which, where the note is “parent: IOH40631_2”, the protein stability index came out at 3.21.

For CLLGLGSLVLILSLSYTVLIVGRI, the protein stability index (parent: IOH40813_20) is 3.34.

TRIMIGLTLVFFVQITGQPNILFY: the protein stability index (parent: IOH40813_47) was 3.31.

For the protein QQVKCIITEEKVCMVCKKKIGNSA, for the setting “parent: IOH40537_139”, the protein stability index came to 2.82.

In the case of ENKPSTCSFSIERILGLDQKKDCV, the protein stability index (parent: IOH40237_3) worked out at 3.12.

Take ASSVESTLPVLEASSWKKQVSHDF [FBXO34 WT]: the protein stability index (parent: IOH41760_90) was determined as 3.

With TGEFLKLPFERLAFVLSSNSLKHC, the protein stability index (parent: IOH40892_39) is 2.65.

Turning to TYLCERCQPRNLDKERAVLLQRRK, the protein stability index (parent: IOH39874_27) was 2.15.

In the case of TTLLKCYLHTNVALVAPLLRLENN, the protein stability index (parent: IOH40537_76) turned out to be 3.28.

On to RTHTGEQPYTCSICRRNFSRRSSL [ZNF75A WT], for which, where the note is “parent: IOH41486_45”, the protein stability index was 2.88.

For KLAEAYLNLGPALSAALASSQKQH, the protein stability index (parent: IOH40091_29) was found to be 2.78.

Consider WSSRSPQERSRVLNQVADLLEQSL, for which the protein stability index (parent: IOH41048_11) stood at 2.54.

As to YLPTRGGTTMASGGRFRCPSCRHE, the protein stability index (parent: IOH40604_11) worked out at 1.83.

As for EDLTAKRKRMKMDKTCSKTKNKSK [FAM9B WT], for the setting “parent: IOH41618_11”, the protein stability index was 4.96.

As for SKYENYFSASERLSLKRELSWYRG, where the note is “parent: IOH40237_15”, the protein stability index turned out to be 1.92.

As for FSFKVSRWMGLACFRSLAASSPSI [CCDC70 WT], the protein stability index (parent: IOH40382_3) was 2.79.

YIKVDWQRVEKDMKKAKEQLKIRK [FUNDC2 WT]: the protein stability index (parent: IOH40818_22) was found to be 1.68.

TPAKSLDKFIEDYLLPDTCFRMQI: the protein stability index (parent: IOH41283_2) is 2.79.

For GVSKVGLRKIIDFIYTAKLSLNMD, where the note is “parent: IOH40892_24”, the protein stability index came out at 2.67.

As for YANGGLNYSYRGYGALSSNLQPPA [C20orf112 WT], the protein stability index (parent: IOH40687_56) was found to be 2.06.

With LQLGEGVEFDVLPAFDALGQLTGG, where the note is “parent: IOH41283_24”, the protein stability index was found to be 1.9.

Consider YIGTHEYPHFSHRPSTLQAASTPQ, for which, where the note is “parent: IOH41283_62”, the protein stability index is 1.94.

As for APKKELINIKGISEAKADKILAEA, the protein stability index (parent: IOH41191_10) is 4.71.

Turning to HSGEKPFICKECGKAYGWCSELIR, where the note is “parent: IOH40635_69”, the protein stability index was determined as 2.02.

Consider LTLVFFVQITGQPNILFYASTVLK, for which, under “parent: IOH40813_48”, the protein stability index was determined as 2.98.

Take FQMEKIEHGYENMNHFTVNLNREE: the protein stability index (parent: IOH40604_50) is 2.79.

On to WCLVQICEKYLPGYYSEKLEAIQL [TBC1D10A WT], for which the protein stability index (parent: IOH41348_37) came out at 2.8.

For the protein LTVYAWERGSMKTHFNTAQGFRTV, the protein stability index (parent: IOH41283_40) is 2.27.

Consider LRLENNHCHIEESEHVLKKAHKYS, for which, under “parent: IOH40537_79”, the protein stability index came to 2.32.

NLDTEELCEYFSQHLGEYENVLAA: the protein stability index (parent: IOH40093_14) worked out at 2.41.

On to GKAYGWCSELIRHRRVHARKEPSH, for which, for the setting “parent: IOH40635_71”, the protein stability index was 2.85.

As for PTCPVCKDRASPADLRTNHTLNNL, under “parent: IOH40792_10”, the protein stability index is 2.83.

As for FSPNSPQFNVSGPGLLEEDNQWMT, the protein stability index (parent: IOH40093_33) came out at 2.95.

Turning to LYLQLAICSSLQNLEKTIFCLQKL, the protein stability index (parent: IOH40091_23) is 2.99.

Turning to FTGSQPTAERITQLSAPHCKKLSL, where the note is “parent: IOH41048_39”, the protein stability index came out at 2.08.

As for FPKSEQVYLHFLSVVTEDGPEPKD, the protein stability index (parent: IOH40635_35) was 2.15.

As to QKKDCVPLMKPHRPWADTCSSSGK, where the note is “parent: IOH40237_6”, the protein stability index was 3.2.

YNENVYTEDGKLDIWSKSNYQVFQ [MED27 WT]: the protein stability index (parent: IOH39902_37) stood at 2.11.

For DKELLCCSCQADPRHQGHRVQPVK, the protein stability index (parent: IOH40792_20) was found to be 3.56.

VVAYLALAALSATISFRIYKSVLQ [RTN1 WT]: the protein stability index (parent: IOH40898_10) came out at 3.02.

Consider YKSFSKEQQTMDNLEKQLICPICL, for which, for the setting “parent: IOH40604_2”, the protein stability index came to 2.08.

Turning to RFLRMLLRLADEFGVAVVITNQVV, under “parent: IOH41191_42”, the protein stability index came out at 2.39.

WEVQVSPTCPVCKDRASPADLRTN: the protein stability index (parent: IOH40792_9) is 2.54.

Consider YCAKLCEPQWFYEETESSDDVEVL, for which, under “parent: IOH40091_6”, the protein stability index is 2.25.

ICPICLEMFTKPVVILPCQHNLCR: the protein stability index (parent: IOH40604_5) was 2.21.

On to RVAKKLQSGLVWTNCWLIRELNLP, for which the protein stability index (parent: IOH41048_73) amounted to 2.99.

With WIHRPGCRCKNSNTVYCKLESCPS [SPRY1 WT], the protein stability index (parent: IOH39997_49) amounted to 2.19.

HVPNPPSGISFPSVVDHPMPEERA: under “parent: IOH40237_11”, the protein stability index amounted to 2.54.

On to EQIAERKRKMVSWEASSLGLVTAA, for which, for the setting “parent: IOH39874_95”, the protein stability index stood at 2.83.

Consider ITEEKVCMVCKKKIGNSAFARYPN, for which the protein stability index (parent: IOH40537_140) stood at 2.44.

Take FQASNPYLPTRGGTTMASGGRFRC: where the note is “parent: IOH40604_10”, the protein stability index was 1.74.
